Measured values from the supplement of paper PMC9732359.
± gives the uncertainty stated by the source.

Assay: protein stability index of a GFP-peptide fusion (yeast GPS) (PSI 1-4); higher = more stable; sorted into four equal gates, so the index is relative within each strain
Procedure, shortened: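 For each peptide, the protein stability index sums the read frequency in every gate after multiplying it by the gate number. Read frequencies came from plasmids that were PCR-amplified from each gate and Illumina-sequenced, with reads assigned to strains by barcodes. The gates were four equal bins of GFP/Cherry fluorescence ratio applied to mid-log yeast in leucine-free medium carrying a pooled library of tiled 17-residue yeast protein peptides fused downstream of GFP on a Cherry-expressing plasmid.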

| Sequence | protein stability index (doa10∆) | protein stability index (pdr5∆) | protein stability index (san1∆) | protein stability index (ubr1∆) |
| --- | --- | --- | --- | --- |
| VDENDEVLLAGFGRKGK [RPS23A] | 1.08 ± 0.084 | 1.41 ± 0.076 | 1.15 ± 0.11 | 1.24 ± 0.068 |
| VDFACCTNLTNRTLYEL [GRR1] | 2.72 ± 0.061 | 2.71 ± 0.061 | 2.26 ± 0.06 | 2.73 ± 0.044 |
| VDGMAKVPIGLILQRLK [RGR1] | 2.51 ± 0.1 | 2.67 ± 0.091 | 2.22 ± 0.15 | 2.49 ± 0.057 |
| VDIGGKQHAVLMLGSVN [RRP4] | 2.06 ± 0.052 | 2.66 ± 0.052 | 2.68 ± 0.06 | 2.6 ± 0.037 |
| VDKALIAEIKKTPLLKQ [RPL6A] | 2.64 ± 0.088 | 2.12 ± 0.28 | 1.92 ± 0.16 | – |
| VDLLQFPWLNAIKYRPT [POP3] | 2.33 ± 0.07 | 2.42 ± 0.091 | 2.36 ± 0.15 | 1.84 ± 0.11 |
| VDNENNKPAIKEDSTIQ [SWI3] | 2.84 ± 0.063 | 2.97 ± 0.069 | 3.08 ± 0.058 | 3.12 ± 0.062 |
| VDPRIINSENDYSRKQL [NUT1] | 3.06 ± 0.072 | 3.38 ± 0.072 | 2.78 ± 0.082 | 3.06 ± 0.056 |
| VDSGSNDAMAGGFTAYG [RPO21] | 3.26 ± 0.16 | – | 3.37 ± 0.26 | – |
| VDSLDPFSEGVTFSVMP [SMC4] | 2.92 ± 0.086 | 2.39 ± 0.065 | 2.2 ± 0.13 | 3.1 ± 0.072 |
| VDTGLQPQHPHYVSTSK [YLR018C/POM34] | 2.38 ± 0.05 | 2.77 ± 0.045 | 2.88 ± 0.05 | 2.9 ± 0.042 |
| VDTLHNKEGTLEQREQN [SSN2] | 3.14 ± 0.15 | 3.47 ± 0.099 | 3.21 ± 0.058 | 3.35 ± 0.081 |
| VEDDLVTVQTELNEEKK [SMC2] | 3.23 ± 0.16 | 2.55 ± 0.078 | 2.55 ± 0.08 | 2.85 ± 0.087 |
| VEDELTESIALSSMRFK [RRI1] | 3.21 ± 0.067 | 3.38 ± 0.051 | 3.21 ± 0.062 | 3.28 ± 0.051 |
| VEECPQYIRTLVSEART [SSN8] | 1.67 ± 0.1 | 1.7 ± 0.1 | 1.6 ± 0.14 | 1.87 ± 0.061 |
| VEGHLFEIIDEASKKSA [FAS1] | 3.26 ± 0.17 | 3.5 ± 0.15 | 3.22 ± 0.06 | 3.33 ± 0.073 |
| VELTYSLNNSDSLISGV [BRR2] | 2.73 ± 0.12 | 2.98 ± 0.085 | 3.14 ± 0.088 | 3.12 ± 0.051 |
| VENGTTSIGIKCNDGVV [PRE10] | 2.14 ± 0.11 | 2.1 ± 0.089 | 1.35 ± 0.21 | 3.31 ± 0.22 |
| VEQGYEDAFNFWFDKLV [YCG1] | 3.05 ± 0.12 | 2.66 ± 0.14 | 3.38 ± 0.1 | 2.38 ± 0.2 |
| VETKLETKVDELRYQSH [DSN1] | 2.86 ± 0.088 | 3.22 ± 0.074 | 3.31 ± 0.058 | 3.08 ± 0.073 |
| VFLFDIEKVDRENMICK [RRI2] | 3.17 ± 0.17 | 3.24 ± 0.14 | 2.88 ± 0.19 | 3.29 ± 0.12 |
| VFLRNRLKYALNGREVK [RPS4A] | 2.93 ± 0.099 | 2.82 ± 0.12 | 2.69 ± 0.086 | 3.06 ± 0.095 |
| VFNDAHVLNKVTLASIL [RPN1] | 2.21 ± 0.091 | 2.09 ± 0.065 | 2.45 ± 0.096 | 2.03 ± 0.05 |
| VFVGTIFAGAFVFQTVF [QCR9] | 1.82 ± 0.061 | 1.4 ± 0.049 | 1.23 ± 0.11 | 1.5 ± 0.043 |
| VFYQVTPEDADEEEDDE [RPL22B] | 1.84 ± 0.057 | 2.33 ± 0.068 | 2.63 ± 0.057 | 1.99 ± 0.071 |
| VGASVVVVKNWGAETDE [RPS12] | 3.34 ± 0.12 | 3.12 ± 0.089 | 3.29 ± 0.047 | 2.97 ± 0.067 |
| VGDIVDIKANGSIQKGM [RPL21A] | 2.35 ± 0.072 | 1.9 ± 0.065 | 1.62 ± 0.089 | 2.19 ± 0.047 |

| Sequence | protein stability index (doa10∆) | protein stability index (pdr5∆) | protein stability index (san1∆) | protein stability index (ubr1∆) |
| --- | --- | --- | --- | --- |
| VGKRVRYLVGGNKIQKV [RPS7A] | 1.25 ± 0.084 | 1.98 ± 0.18 | 1.49 ± 0.26 | 1.7 ± 0.17 |
| VGKYDKAIELLEKALQG [SRP72] | – | 1.66 ± 0.17 | – | 1.18 ± 0.22 |
| VGMRYFHKQQAHFWKPV [RPL28] | – | 3.02 ± 0.11 | – | 2.83 ± 0.09 |
| VGTAIDSILNYAKSEFD [ECM29] | 2.76 ± 0.2 | 2.77 ± 0.1 | 2.92 ± 0.25 | 3.08 ± 0.088 |
| VHTANFSERGSNTRTMT [MED2] | 3.37 ± 0.3 | 3.35 ± 0.26 | 3.08 ± 0.14 | 3.26 ± 0.22 |
| VICSVTGPIEPKARQEL [RRP46] | 2.79 ± 0.081 | 3.06 ± 0.11 | 2.75 ± 0.051 | 2.88 ± 0.054 |
| VIDIEIHVLEQDGGIMG [SKI6] | 2.84 ± 0.076 | 2.56 ± 0.095 | 2.5 ± 0.11 | 2.85 ± 0.062 |
| VINLKQIAKFVVGLGER [RPT1] | 2.75 ± 0.14 | 3.39 ± 0.18 | 3.12 ± 0.3 | – |
| VISLGPNLATFISSGTS [YJL039C/NUP192] | 2.33 ± 0.061 | 2.64 ± 0.065 | 2.36 ± 0.073 | 2.3 ± 0.046 |
| VISMFVLPIFTTVFFSR [YML031W/NDC1] | 1.38 ± 0.046 | 1.16 ± 0.065 | 1.17 ± 0.11 | 1.16 ± 0.057 |
| VITPHFITNVQSISQNS [SWI1] | 1.85 ± 0.11 | 2.45 ± 0.11 | 2.2 ± 0.14 | 1.73 ± 0.073 |
| VIVTDPRSDAQAIKEAS [RPS0A] | 2.88 ± 0.089 | 2.96 ± 0.08 | 2.92 ± 0.068 | 2.91 ± 0.061 |
| VKEEKEDMETQASDPSK [RPC53] | 3.27 ± 0.14 | 3.41 ± 0.2 | 3.2 ± 0.17 | 3.31 ± 0.15 |
| VKFYEIFNFDQLVEITE [SRB8] | 1.24 ± 0.11 | 1.35 ± 0.088 | 1.58 ± 0.14 | 1.37 ± 0.058 |
| VKGLLNTYKRLVIGIFK [YJL039C/NUP192] | 2.53 ± 0.061 | 2.46 ± 0.051 | 1.5 ± 0.11 | 2.2 ± 0.04 |
| VKGRENELLLPSELNQL [RPC82] | – | – | 3.35 ± 0.13 | – |
| VKHSPGAIKPFTPKLIY [ECM29] | 3.16 ± 0.089 | – | 2.87 ± 0.19 | 2.93 ± 0.1 |
| VKIVDKDGIRQVDDFQA [PRE1] | 2.86 ± 0.14 | 2.9 ± 0.11 | – | – |
| VKLGLNSKMPTRFPPAV [PRP8] | 2.78 ± 0.057 | 3.06 ± 0.076 | 2.85 ± 0.051 | 2.73 ± 0.06 |
| VKLGNIWKESLIELSGG [SMC2] | 2.22 ± 0.18 | 2.24 ± 0.098 | 2.12 ± 0.14 | 2.19 ± 0.1 |
| VKLQMIKFGGLIIQKIP [ECM29] | 2.48 ± 0.059 | 1.89 ± 0.065 | 1.48 ± 0.07 | 2.37 ± 0.049 |
| VKNLSLMSCISVGTDPM [RPB2] | 1.88 ± 0.067 | 1.67 ± 0.061 | 2.48 ± 0.058 | 2.43 ± 0.063 |
| VKQLENVSSNIVKNAEQ [RPS20] | 2.58 ± 0.092 | 2.84 ± 0.081 | 3.15 ± 0.049 | 2.86 ± 0.056 |
| VKSFKPHLLKQGLAMVE [RRP42] | 2.01 ± 0.13 | 2.35 ± 0.1 | – | 2.29 ± 0.2 |
| VKSLRQGKSKLIIIAAN [RPL30] | 2.03 ± 0.11 | 1.4 ± 0.11 | 1.62 ± 0.22 | 1.96 ± 0.084 |
| VKTKTIELIDYDKLPAG [RET1] | 2.98 ± 0.12 | 3.42 ± 0.13 | 2.67 ± 0.19 | 2.95 ± 0.082 |
